Experimental data: US10509035B2, “Antibodies, antibody drug conjugates and methods of use” (GAMAMABS PHARMA, priority 2015, dated 2019)
Where a chain is given by its changes, count along the chain named. In names and notes the source's numbering stands. Entries after “also recorded” stand apart in the source; their conditions may differ.

T1: AMHR-II receptor protein (AMHR-II-ECD-Fc) (Homo sapiens, UniProt Q16671)
T1 construct: Fc (C); purchased R&D System
T1 sequence (Q16671 18-149 limits assumed): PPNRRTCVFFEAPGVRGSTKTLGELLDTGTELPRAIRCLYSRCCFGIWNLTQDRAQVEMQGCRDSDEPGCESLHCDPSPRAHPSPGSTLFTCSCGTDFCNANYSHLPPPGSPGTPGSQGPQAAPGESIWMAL

T2: AMHR2 receptor expressed at the surface membrane of the COV434 AMHR2 transfected cell line (Homo sapiens, UniProt Q16671)
T2 construct: expressed in transfected cells; host or cells: COV434
T2 sequence (Q16671 18-573): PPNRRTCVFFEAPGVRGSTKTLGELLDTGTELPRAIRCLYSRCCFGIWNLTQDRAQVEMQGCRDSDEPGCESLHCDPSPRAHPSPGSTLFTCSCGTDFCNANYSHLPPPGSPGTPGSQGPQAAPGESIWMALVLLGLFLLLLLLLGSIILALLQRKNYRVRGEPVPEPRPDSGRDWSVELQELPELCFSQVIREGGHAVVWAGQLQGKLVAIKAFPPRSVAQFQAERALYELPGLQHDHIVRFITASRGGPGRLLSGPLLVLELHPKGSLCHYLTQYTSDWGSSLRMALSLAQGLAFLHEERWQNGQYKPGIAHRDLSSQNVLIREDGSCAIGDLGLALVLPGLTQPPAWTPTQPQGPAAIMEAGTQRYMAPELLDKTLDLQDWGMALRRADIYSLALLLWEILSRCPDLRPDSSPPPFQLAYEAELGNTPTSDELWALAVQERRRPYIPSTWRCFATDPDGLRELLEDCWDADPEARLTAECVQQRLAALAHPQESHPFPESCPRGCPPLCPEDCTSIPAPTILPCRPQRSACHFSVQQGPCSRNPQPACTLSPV

T3: extracellular domain of AMHR-II receptor (AMHR-II-ECD-Fc) (Homo sapiens, UniProt Q16671)
T3 construct: Fc (C); purchased R&D System
T3 sequence (Q16671 18-149 limits assumed): T1 sequence (Q16671 18-149 limits assumed)

T4: AMHR2 receptor expressed at the surface membrane of the COV434 WT cell line (Homo sapiens, UniProt Q16671)
T4 construct: assayed on the low expressing AMHR-II COV434 WT cell line; endogenous in cells; host or cells: COV434 WT
T4 sequence (Q16671 18-573): T2 sequence (Q16671 18-573)

B1: 3C23K (antibody, V domains shown)
VH: QVRLVQSGAEVKKPGASVKVSCKASGYTFTSYHIHWVRQAPGQRLEWMGWIYPGDDSTKYSQKFQGRVTITRDTSASTAYMELSSLRSEDTAVYYCTRGDRFAYWGQGTLVTVSS
VL: DIQMTQSPSTLSASVGDRVTITCRASSSVRYIAWYQQKPGKAPKLLTYPTSSLKSGVPSRFSGSGSGTEFTLTISSLQPDDFATYYCLQWSSYPWTFGGGTKVEIK
modifications: 3C23K/3C23; 3C23K
B2: K4D24: 3C23K variant; VH H-Q1R (SEQ ID NO: 22), VL SEQ ID NO: 36 (antibody, V domains shown)
VH: B1 VH with Q1R
VL: B1 VL
modifications: K4D-24/6C59; 3C23K
B3: 6C59: 3C23K variant; VH H-Q1R (SEQ ID NO: 22), VL L-S27P, L-S28P (SEQ ID NO: 40) (antibody, V domains shown)
VH: B1 VH with Q1R
VL: B1 VL with S27P, S28P
modifications: K4D-24/6C59; LS27P, L-S28P

Legend:
[1] = biological target: T1, AMHR-II receptor protein (AMHR-II-ECD-Fc); test: Binding kinetic parameters by surface plasmon resonance (Bia3000) on immobilized AMHR-II-ECD-Fc; settings: SPR, 25° C., Langmuir 1:1 fitting model
Method: Immobilization of AMHRII was performed on a Bia3000 apparatus at 25° C. in HBS-EP (HEPES 10 mM, NaCl 150 mM, EDTA 3 mM, P20 surfactant 0.005%) at […] flow rate on CM5 sensor chip using EDC/NHS (1-Ethyl-3-3-dimethylaminopropyl carbodiimidehydrochloride) activation according to the manufacturer's instructions (GEHealthcare). Briefly, carboxyl functions of CM5 sensor chip were activated with 0.4M EDC/0.1M NHS during 7 min. A solution of AMHR-II-ECD-Fc (R&D System) at 2.5 μg/ml in sodium acetate buffer was injected during 12 min. An injection of 1M ethanolamine hydrochloride was used to neutralize the activation. Recombinant AMHR-II was covalently immobilized at 1270 RU level. A control reference surface was prepared using the same chemical treatment of without injection of AMHRII.
Antibodies at different concentrations (from 0.5 nM to 133 nM) were injected during 180s on AMHRII-coated flowcell and the control flowcell. After a dissociation step of 400s in running buffer, sensor surfaces were regenerated using 5 μl of Glycine-HCl pH1.7. All the sensorgrams were corrected by subtracting the low signal from the control reference surface. Kinetic parameters were evaluated from the sensorgrams using a Langmuir 1:1 fitting model on the BiaEvaluation 4.2 software.

[2] = biological target: T2, AMHR2 receptor expressed at the surface membrane of the COV434 AMHR2 transfected cell line; test: FACS binding to AMHR-II receptor at the surface of the COV434 AMHR-II transfected cell line; settings: concentrations 0.5 to 75 μg/ml, Hill slope fit (Example 4)
Method: (§1) The COV434 AMHR-II transfected and the COV434 WT cell lines were maintained in DMEM/GlutaMax (Gibco) supplemented with 10% FBS, penicillin 100 U/ml and Streptomycin 100 μg/ml. Geneticin at 666 μg/ml was added for the COV434 AMHR-II transfected cell line. […] After washes, Phycoerythrin-conjugated anti-human IgG antibody (1:200, Beckman-Coulter) was added for 1 hour at room temperature. FACS analysis of the resuspended cells was done on a BD Accuri™ C6 flow cytometer (BD Bioscience).
(§2) The binding capacity of the anti-AMHR-II antibody variants K4D24 and 6C59 to the AMHR-II expressing cell lines was evaluated by flow cytometry analysis in the same manner as example 4. FACS analysis with COV434-AMHR-II transfected cell line is described in FIG. 16. The Kapparent of the K4D24 and 6C59 variants were improved by a factor of 20 and 40 fold respectively as compared to the 3C23K (0.098 μg/ml and 0.05 μg/ml versus 2.2 μg/ml). The binding capacity of these variants was also assayed on the low expressing AMHR-II COV434 WT cell line. In this setting the binding was evaluated with three concentrations of variants (25, 10 and 5 μg/ml) and three concentrations of 3C23K (50, 25 and 10 μg/ml).

[3] = biological target: T5, FCGRIIIA receptor (CD16a) (Homo sapiens, UniProt P08637); test: ELISA binding to the extracellular domain of CD16a; settings: 200 ng per well CD16a, 0.3 to 5.0 μg/ml
T5 construct: purchased R&D System
Method: The binding of anti-AMHR-II antibodies to the extracellular domain of CD16a was evaluated by ELISA. ELISA plates (96 wells, Maxisorp, NUnc) were coated overnight at +4° C. with 200 ng per wells of CD16a (R&D System) or an irrelevant protein (NS, non-specific binding). The experimental protocol was identical to that described for example 1. The unconjugated and ADC 3C23K antibodies were tested at concentrations from 0.3 to 5.0 μg/ml.

[4] = system: COV434 AMHR-II transfected cell line; test: Apoptosis induction, Annexin V-FITC / propidium iodide flow cytometry; format: cell-based; settings: 250 μg/ml, 48 hours
Method: The percentage of apoptotic was assessed using the Annexin V-Fluos Staining kit (Roche) according to the manufacturer's protocol. […] Carboplatin (300 μM) was used as positive control. After washes and centrifugation, the cell pellets were resuspended in the Annexin-V-Fluorescein and propidium iodide reagents. Following 10 minutes incubation at room temperature, samples were analyzed by flow cytometry on a BD Accuri™ C6 flow cytometer (BD Bioscience).

[5] = system: COV434 AMHR-II transfected cell line; test: Antibody internalization (flow cytometry and immunofluorescence imaging); format: cell-based; settings: for internalization compared with 3C23K: K4D24 0.5 μg/ml, 6C59 0.3 μg/ml, 3C23K 10 μg/ml
Method: (§3) Antibody mediated internalization were assessed by flow cytometry analysis and by immunofluorescence imaging. Flow cytometry experiments was done on the two expressing AMHR-II cell lines: COV434 WT with low level of expression and COV434-AMHR-II transfected cell line with high level of expression. Briefly, 5×10^5 cells were incubated with 3C23K at 10 μg/ml and incubated 30 min at 4° C. After washes, DMEM/GlutaMax (Gibco) medium, cold or pre-warmed at 37° C., was added and incubated at 4° C. or 37° C. at different time points (15 min, 30 min and 60 min). Phycoerythrin-conjugated anti-human IgG antibody (1:200, Beckman-Coulter) was added for 30 min at 4° C. FACS analysis of the resuspended cells was done on a BD Accuri™ C6 flow cytometer (BD Bioscience). As depicted in FIGS. 9A and 9B, the internalization of the 3C23K observed at 37° C. is fast whatever the level of AMHR-II expression. For immunofluorescence imaging experiments, COV434 AMHR-II transfected cell line were grown on poly-D lysine coated glass coverslips overnight at 37° C. at a density of 75000 cells/cm^2. Cells were incubated with 3C23K directly labelled with Alexa Fluor 488 for 1H30 at 4° C. to carry out surface labelling. Cell surface bound antibodies were allowed to internalize by incubating cells in prewarmed medium at 37° C. At appropriate time points, coverslips were removed and cells were washed in PBS, then fixed in formaline (4%, 30 min at room temperature) and permeabilized (Triton X-100 0.5%, 5 min at room temperature). Nuclei were stained with DAPI (4′,6-diamidino-2-phenylindole) and coverslips were mounted on microscope slides and imaged with Leica DM5000 microscope (Leica Microsystems). Internalization was quantified by counting the number of visible vesicles in cell section at different incubation time using Image J software.
The internalization capacity of the K4D24 and 6C59 variants was assayed by fluorescence cytometry analysis in the same manner as in Example 8 except for the concentrations used. Due to their strong binding, K4D24 and 6C59 were used at 0.5 μg/ml and 0.3 μg/ml respectively whereas the 3C23K was used at 10 μg/ml.

COV434 WT cell line = test: Antibody internalization (flow cytometry); format: cell-based; settings: 10 μg/ml, low level of AMHR-II expression
Method: as §3, with “Cell surface bound antibodies were allowed to internalize by incubating cells in prewarmed medium at 37° C. At appropriate time points, coverslips were removed and cells were washed in PBS, then fixed in formaline (4%, 30 min at room temperature) and permeabilized (Triton X-100 0.5%, 5 min at room temperature). Nuclei were stained with DAPI (4′,6-diamidino-2-phenylindole) and coverslips were mounted on microscope slides and imaged with Leica DM5000 microscope (Leica Microsystems).” left out

[6] = system: COV434 AMHR-II transfected cell line; test: Co-localization with the lysosomal marker LAMP-1 (immunofluorescence); format: cell-based
Method: as §3, with “Cell surface bound antibodies were allowed to internalize by incubating cells in prewarmed medium at 37° C. At appropriate time points, coverslips were removed and cells were washed in PBS, then fixed in formaline (4%, 30 min at room temperature) and permeabilized (Triton X-100 0.5%, 5 min at room temperature). Nuclei were stained with DAPI (4′,6-diamidino-2-phenylindole) and coverslips were mounted on microscope slides and imaged with Leica DM5000 microscope (Leica Microsystems).” left out, “software. […]” for “software.”

[7] = biological target: T3, extracellular domain of AMHR-II receptor (AMHR-II-ECD-Fc); test: ELISA binding to the extracellular domain of AMHR-II receptor
Method: The binding capacity of the anti-AMHR-II 3C23K antibodies was evaluated by ELISA. ELISA plates (96 wells, Maxisorp, NUnc) were coated overnight at +4° C. with 50 ng per well of AMHR-II-ECD-Fc (R&D System). Coated ELISA plates were blocked with PBS-BSA 4% for 2 hours at 37° C. and washed three times with PBS-Tween20 0.05%. […] The bound anti-AMHR-II antibodies were detected by adding HRP-conjugated F(ab′)2 goat anti-human F(ab′2) fragment specific (Interchim) diluted at 1:10000 and incubated for one hour at 37° C. Revelation was done with TMB (Sigma) and the reaction was stopped by adding H2SO4 1N (v:v). Absorbances were measured at 450 nm and binding data curves were analysis using GraphPad Prism.
The binding capacity of the anti-AMHR-II variants K4D24 and 6C59 antibodies was assayed by ELISA assay as the same manner as in example 3 with only minor changes. ELISA plates (96 wells, Maxisorp, NUnc) were coated overnight at +4° C. with 50 ng per well or 10 ng per well of AMHR-II-ECD-Fc (R&D System). K4D24, 6C59 and 3C23K were serially diluted from 4 μg/ml to 1 ng/ml. Absorbances were measured at 450 nm and binding data curves were analysis using four-parameter nonlinear regression fit from GraphPad Prism. FIGS. 15A-15B show the results.

[8] = biological target: T4, AMHR2 receptor expressed at the surface membrane of the COV434 WT cell line; test: FACS binding to the low expressing COV434 WT cell line; settings: variants 25, 10, 5 μg/ml; 3C23K 50, 25, 10 μg/ml
Method: as §1, §2

[9] = coating 10 ng/well AMHR-II recombinant protein
[10] = coating 50 ng/well AMHR-II recombinant protein

T5 sequence (P08637 17-208 limits assumed): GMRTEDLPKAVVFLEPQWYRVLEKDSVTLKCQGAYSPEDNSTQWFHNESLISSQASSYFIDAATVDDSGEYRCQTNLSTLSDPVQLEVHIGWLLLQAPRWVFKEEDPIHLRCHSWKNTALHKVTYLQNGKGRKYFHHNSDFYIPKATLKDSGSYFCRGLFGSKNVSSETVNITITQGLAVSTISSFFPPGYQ

Row | Molecule | KA [1] | Kd [1] | ka [1] | kd [1] | KDapparent [2] | binding to CD16a [3] | apoptosis induction [4] | internalization observed at 37° C. ([5]; flow cytometry, 10 μg/ml, high level of AMHR-II expression) | time of maximum of intracellular location ([5]; immunofluorescence imaging, 3C23K Alexa Fluor 488, 37° C.) | internalization observed at 37° C. (COV434 WT cell line) | detection in the lysosomal compartment (colocalization with LAMP-1) [6] | binding compared with 3C23K [7, 9] | binding compared with 3C23K [7, 10] | internalization compared with 3C23K ([5]; flow cytometry) | binding compared to 3C23K on the COV434 WT cell line [8]
1 | B1 | 1.81e+10 M⁻¹ | 0.05 nM | 125000 M⁻¹ s⁻¹ | 6.93e-06 s⁻¹ | ~3.1 µg/mL | very high affinity | did not induce any apoptosis | fast | 60 min | fast | rapidly detected in the lysosomal compartment | – | – | – | –
2 | B2 | – | – | – | – | – | – | – | – | – | – | – | Improved binding; also recorded: stronger | no major difference of binding | retain the same internalization potential | strongly improve the level of detection; also recorded: stronger binding
3 | B3 | – | – | – | – | – | – | – | – | – | – | – | Improved binding; also recorded: stronger | no major difference of binding | retain the same internalization potential | strongly improve the level of detection; also recorded: stronger binding
